We go through 1 molecule from patent US20160279079A1, “COMPOSITIONS AND METHODS FOR TREATING BONE DISEASES” (INDIANA UNIVERSITY RESEARCH AND TECHNOLOGY CORPORATION, priority 2013, published 2016).

Assay [1] relates to NFATc1. Briefly: Quantitative real-time PCR, NFATc1 mRNA in RAW264.7 cells. The class given is cell-based, mouse. As to conditions: day 2. Here is the method:
(§1) METHOD EXAMPLE. Quantitative real-time PCR. Total RNA was extracted using an RNeasy Plus mini kit (Qiagen, Germantown, Md., USA). Reverse transcription was conducted with high capacity cDNA reverse transcription kits (Applied Biosystems, Carlsbad, Calif., USA), and quantitative real-time PCR was performed using ABI 7500 with Power SYBR green PCR master mix kits (Applied Biosystems). We evaluated mRNA levels of ATF4, Osteocalcin (OCN), NFATcl, c-Fos, tartrate-resistant acid phosphatase (TRAP), and osteoclast-associated receptor (OSCAR) with the PCR primers listed in Table 1. GAPDH was used for internal control. The relative mRNA abundance for the selected genes with respect to the level of GAPDH mRNA was expressed as a ratio of Streated/Scontrol, where Streated=mRNA level for the cells treated with chemical agents, and Scontrol=mRNA level for control cells.
(§2) METHOD EXAMPLE. Partial suppression of mRNA levels of NFATcl, c-Fos, TRAP, and OSCAR by salubrinal. […] On day 2, for instance, the RANKL-driven increase was 9.4±0.5 fold (NFATcl), 1.9±0.1 fold (c-fos), 165±4.2 fold (TRAP), and 467±22 fold (OSCAR). The reduction by 20 μM salubrinal was 46% (NFATcl), 32% (c-fos), 35% (TRAP), and 21% (OSCAR) (FIG. 5A).
(§3) METHOD EXAMPLE. Reduction of RANKL-induced NFATcl, c-Fos, TRAP, and OSCAR by guanabenz. […] The normalized level of “1” was defined as the level for the cells that were not treated with RANKL without administration of guanabenz.

Assay [2] deals with c-Fos. Briefly: Quantitative real-time PCR, c-Fos mRNA in RAW264.7 cells. Type of assay: cell-based, mouse. The settings on record: day 2. How it is done:
as §1, §2, §3

Assay [3] deals with osteoclast-associated receptor (OSCAR). Briefly: Quantitative real-time PCR, OSCAR mRNA in RAW264.7 cells. Type of assay: cell-based, mouse. The settings on record: day 2. Here is the method:
as §1, §2, §3

Assay [4] concerns RAW264.7 mouse pre-osteoclast (monocyte/macrophage) cells. Briefly: Cell mortality and live cell numbers (trypan blue, hemacytometer). Type of assay: cell-based. As to conditions: incubation with RANKL (20 ng/ml), 24 h. Here is the method: METHOD EXAMPLE. Cell culture. MC3T3 E1 mouse osteoblast-like cells (clone 14—MC3T3 E1-14; and no clonal cells in supplementary figures), and RAW264.7 mouse pre-osteoclast (monocyte/macrophage) cells were cultured in αMEM containing 10% fetal bovine serum and antibiotics (50 units/ml penicillin, and 50 μg/ml streptomycin; Life Technologies, Grand Island, N.Y., USA). Cells were maintained at 37° C. and 5% CO2 in a humidified incubator. Cell mortality and live cell numbers were determined 24 h after the treatment with 20 ng/ml RANKL (PeproTech, Rocky Hills, N.C., USA) in response to 0.1-20 μM salubrinal or 1-20 μM guanabenz acetate (Tocris Bioscience, Ellisville, Mo., USA). Cells were stained with trypan blue and the numbers of live and dead cells were counted using a hemacytometer.
METHOD EXAMPLE. Inhibition of osteoclastogenesis of RAW264.7 cells by salubrinal. The primary aim of this study is to evaluate the effects of salubrinal on osteoclastogenesis. In response to 0.1-20 μM salubrinal for 24 h, cell mortality and live cell numbers of RAW264.7 pre-osteoclasts was examined. […] The number of live cells was increased by ˜50% by incubation with RANKL, and administration of 10-20 μM salubrinal reduced the numbers approximately by 10% (FIG. 3B).
METHOD EXAMPLE. Inhibitory effects of guanabenz on osteoclastogenesis of RAW264.7 cells. To further examine a potential involvement of p-eIF2α in regulation of osteoclastogenesis, we employed guanabenz that also acts as an inhibitor of de-phosphorylation of eIF2α was evaluated. […] Compared to the number of TRAP-positive multi-nucleated cells of 377 39 (RANKL only), guanabenz reduced the number of differentiated osteoclasts to 364±38 (1 μM), 288±51 (5 μM), 189±25 (10 μM), and 73±16 (20 μM).

Assay [5] concerns tartrate-resistant acid phosphatase (TRAP). Briefly: Quantitative real-time PCR, TRAP mRNA in RAW264.7 cells. Type of assay: cell-based, mouse. The settings on record: day 2. How it is done:
as §1, §2, §3

Assay [6] deals with NFATc1. In words: Western immunoblotting, NFATc1 expression in RAW264.7 cells. Type of assay: cell-based, mouse. The settings on record: 24 h. How it is done: METHOD EXAMPLE. Downregulation of NFATcl in RAW264.7 cells by salubrinal. NFATcl is a transcription factor critical for activating osteoclastogenesis. […] The RANKL-induced expression of NFATcl was reduced by administration of 5-20 μM salubrinal on both days, and the effect of salubrinal was dose dependent (FIG. 4).
as §3
METHOD EXAMPLE. Western Immunoblotting. Cells were lysed in a radioimmunoprecipitation assay (RIPA) buffer containing protease inhibitors (Santa Cruz Biotechnology, Santa Cruz, Calif., USA) and phosphatase inhibitors (Calbiochem, Billerica, Mass., USA). Isolated proteins were fractionated using 10-15% SDS gels and electro-transferred to Immobilon-P membranes (Millipore, Billerica, Mass., USA). The membrane was incubated for 1 h with primary antibodies followed by 45 min incubation with goat anti-rabbit or anti-mouse IgG conjugated with horseradish peroxidase (Cell Signaling, Danvers, Mass., USA). We used antibodies against ATF4, NFATcl (Santa Cruz), p-eIF2α (Thermo Scientific, Waltham, Mass., USA), eIF2α, caspase 3, cleaved caspase 3, p38 and p-p38 mitogen activated protein kinase (MAPK), extracellular signal-regulated kinase (ERK) and p-ERK, nuclear factor kappa B (NFκB) p65 and p-NFκB p65 (Cell Signaling), and β-actin (Sigma). Protein levels were assayed using a SuperSignal west femto maximum sensitivity substrate (Thermo Scientific), and signal intensities were quantified with a luminescent image analyzer (LAS-3000, Fuji Film, Tokyo, Japan).
METHOD EXAMPLE. Temporal profile of p-eIF2α and NFATcl. […] Note that the normalized level of “1” in FIG. 6C was defined as the level for the cells that were not treated with RANKL without administration of guanabenz.

B1: RANKL: cytokine belonging to the tumor necrosis factor family; stimulus for osteoclast differentiation (PeproTech) (protein, UniProt O14788 140-317, looked up)
Tumor necrosis factor ligand …: IRAEKAMVDGSWLDLAKRSKLEAQPFAHLTINATDIPSGSHKVSLSSWYHDRGWAKISNMTFSNGKLIVNQDGFYYLYANICFRHHETSGDLATEYLQLMVYVTKTSIKIPSSHTLMKGGSTKYWSGNSEFHFYSINVGGFFKLRSGEEISIEVSNPSLLDPDQDATYFGAFKVRDID
As for B1, the “RANKL-driven increase of NFATc1 mRNA level” value in assay [1] is 9.4±0.5 fold. Further, the “RANKL-driven increase of c-fos mRNA level” value in assay [2] stood at 1.9±0.1 fold. For the same molecule, the “RANKL-driven increase of OSCAR mRNA level” value in assay [3] is reported as 467±22 fold. Also, the “increase of the number of live cells” value in assay [4] is around 50%. Also, in assay [5], the “RANKL-driven increase of TRAP mRNA level” value came out at 165±4.2 fold. The “elevation of NFATc1 by addition of RANKL” value in assay [6] is 13.4±3.2 fold.
